The results in this text go back to the DeepSol protein solubility set.

This data set in a line: soluble on expression in E. coli; label from the status in PepcDB or PDB records.
With “RKPEEEPQPIDDSSMQFLLAAKDAVSGGIKQNPDFSAQDLAEKMCMSPSQLNRKLTSVVGCSTIGYIQQIKIKLACKLLADESKNISDISIEAGFSDPAYFSRTFKRYMNCSPSQYRQKLLAMPGSDKETV”, the “soluble on expression in E. coli” value is reported as “not soluble”.

On to “MGSDKIHHHHHHMRLYESLLEMCLNKAWEHQTLALENPSVACMVLDKNHEILSLETHKKAKTPHAEVLAAQSALKILRPSLKNDLEKLEDPKTLSDFLKTHHDNAFTDCVFLITLEPCNSYGKTPACSELLEILKPKRVVIATEENEAKKGGLARLQKARIETIICHNLENKAKDLLLPFRVMEQKGRFNLFKLALRMNGDYHHGKITGQKSVIFTHNQRAICDTLIVSGKTIRTDNPLLDARFCDSFYQNKNPNIAILSKRSIDPNSKVFSAPNRLVNTFHDPKDLPLEKGFNFIEGGWELFESLRDKIDALLLHSHASMIGEAFKALALKTPFKGRLLHAQILENEALLWIENS”, for which the “soluble on expression in E. coli” value is on record as “not soluble”. As for “MGSIPRVLISADRSSSGKTTISMGLMAALVSRGYKVQPFKVALDYIDPSYHTEITGRFCRNLDGYLMDEHGILDVYTHACETGGGADIAIIEGVRGLFEGFESLSDVGSTAQIAKILKCPVVFVINARSITRSAAALIGGYKNFDPDVEIAGVILNNIGGRRHAQKAKEAIEHYTGVPVLGIIPRDPSMQISMRHLGLMPALEGLEHHHHHH”, the “soluble on expression in E. coli” value was “not soluble”. The value for “MGSDKIHHHHHHMHQDTVRGKAFAMPLISPAYPAGPYRFRNREYLIITYRTDPQKLRDLVPEPLQVCEPMVKFEFIRMPDSTGFGDYTEGGQVIPVSFYGRRGSYTHCMFLDDHPPIAGGRELWGFPKKLASPTLRTETDTLVGTLDYGPVRVATGTMGYKHRAADLASVRASLAEPNFLLKIIPHVDGTPRICELVEYHLEDVHLRGAWTGPAALNLWSHALAPVAELPVLEVVSAVHLVADLTLALGKVVHDYLAKA” was “not soluble”; that for “MGSDKIHHHHHHMIDELRAMAIFAETIKQGSFRAAAKELKLSPSVVSYQVTQLEKSVGTALIYRSTRKLSLTSEGGVLYQYALNMIQAAQQGLNQVAIEKQELRGTLTLTLPSALIKSEISKKISQFSKLHPFLNFKLFYTDDRQDLIHQGIDLAFRAGSMDDSNLKSKRVGEINRKLVCSYDYWKENIPPISPQDLTTWNWIKLDMLPNHRTLVNSAGEKCDIDFESNISVNNVEAMTQLCINGAGIATPPDYLIEKEIENNALVELLPNWQVESIPLYAVWPSNVFQNSSVKRLLEFLI” was “not soluble”. The value for “LDPPSGELSLPEDIPGEAKVYFDDEGVPYIHASSDEAAFYAAGWVHASLRLFQMDVFRRVGLGELSGLVGEAGLEADRRAAILGLRSVVDAEWRHIQNNPEFGEIVRIVEAYTAGVNGYISYALKTGRLPVEYRVLGVKPSPWLPQDTLAMAKVLALMLSYSEDDLILDRLVRKWGPEVIADFDIVGRSLNMPHASCDMAVDWGDVTGLEGPYNPLLSVEERREPLHESEPLDLGYNPDPEIIAAVVDRVLYMLSWNAASNNWVVSGSLTVSGNPLLANDPHLSLTAPGIWLPIVISSPSYSLAGVTIPGVPLVVIGRNSHVAWGFTNVGSDFTDFYRYQWVDENRYFYKGRIFGVEKSSIEAYVWDPLARSYRVQEISVARTIHGPVIEWQGEKFAVSYTSARPTFEMIFLWLLNKASSVRDALSAQRYFYGPPQNMVVADSAGNIAYSPVGAYPERATLPTIETGYGPIVNTGFLPFDGSAGEGEWRGFKPYSSLPVLFNPPQGFVATANSKPFEDGCWDGLGWDYADRFRTERIYTLLQERSAEEPLDAGDMRDIQLDVEDLGLKTLVSLMVRVASGDGGHVLERYMDMLAEWAENPQM” was “not soluble”.

With “DDIEADHVGSYGIVVYQSPGDIGQYTFEFDGDELFYVDLDKKETIWMLPEFAQLRSFDPQGGLQNIATGKHNLGVLTKRSNSTPATNEAPQATVFPKSPVLLGQPNTLICFVDNIFPPVINITWLRNSKSVADGVYETSFFVNRDYSFHKLSYLTFIPSDDDIYDCKVEHWGLEEPVLKHWEP”, the “soluble on expression in E. coli” value was “soluble”.

Consider “ENHEKEWRFNSRITLVRSPIMLGQQTSHGWRDLIFDVSGGGATPAKHVMQYTGVSYPLNPSMAPTATPEQISGVRLFSDGISPVREGVRL”, for which the “soluble on expression in E. coli” value is listed as “not soluble”.

In the case of “MIYEIGGHEVSIVRATPGLAKSYYDLLMELYEDPNSYILVNYSKDPPQLESIVERSKNWNVHPHYMHFALYKDKVVGFAGSLLGPDYGPEVQPHIAEIYYGVSKGWRKTGLIYALLYTALSDINAKIVKATAYVENLPSINVLLKIGLRIIAVLEENDFHYMSGKMHDDYLFRGFRSDCLNRLPGLLEKHGISVIR”, the “soluble on expression in E. coli” value is “not soluble”. With “MSLGNYNSQYENYYRNLQNRSIRTSSYYKSSGFNRKNLGEKIIKKIEFQLIGTLVLFLAVFSLREVITPETKAACNYIKYTVSYNYDYSQILSYIEGFNLNDVETYASKIDMDSLKNQSVDYIENLKARVTGEKTFGAKIKQEYCLPINGKIASHFKQKDKDVLGNQYLNNGVDIKANSDLDVKAIYDGTVEKVGEDKDFGKYVMVDNGDGVESKYSNMDSFEVQRGDGVTKGEVLGKVKKNDDASKSYLHFEIMYMGENQDPENYFTFKEGHHHHHH” the entry was “not soluble”; with “MVFDPDFLNNNSEEHTNQLLNEHFGEHPNQLLKYLQHQSPEVLARVAQSVTPEIKQIISQNVQGLVGMLPAESFNVQITTDRDNLAGLLASAMMTGYFLRQMEQRMQLDHLSNQ”, “not soluble”. The value for “MKKVIAGLAAASVAGVAVPGMDSAHAQVSNEALKEINGQTQTQTQTQTTVTETKTVETTSELKYTVTADVLNVRSGAGTGHNVISKVKSGQVLQVVGQENGWFKVNVNGQTGYVSGDFVTTGGKTGTTVQQGTGTYTVNVSSLNVRTGPSTSHTVLGSVNKGKTVQVVGEVQDWFKINFNGGTGYVSKDFVTKGGSAVSNETQQPTTNNNTTTVQTGGSYVVNTGALKVRTGPATYNAVIGGVTNGKVLNVTGAENGWYKINHNGRTGYVSADFVKFVKGGVNNVTNNNNVTNNVQQPGKDVQKPTTGGDTSSIAGFARSLNGSPYRTAGTTPAGFDCSGFIHYVLNQTGHKGARQTVAGYWSSKTKTSNPQPGDLVYFQNTYKSGPSHMGVYLGNGQFISAETDATGVRISSVSNSYWSKHLLGYTKAYLEHHHHHH” was “soluble”. On to “MAALSDKLADAYQNARPRYPIDWFTKLAARTGQHKSAWDVGTGNGQAAIGLAEYFEKVTATDINEAQLKRAVKHERISYHHTPTTMSEDQMVALVGGDNSVDLIVAAQAVHYFDLAPFYNVAKRVLRKEGGLIAVFVYNDIIISPEVDSIMKRLVDSTFPFRTPVMNLAFDGYKTLPFPFESIGMGSEGKPIMLDIPHKLSLKGFIGFLRSWQPAMKAKERGVELVTEDLISKFEDAWGDDDDVKDIFYKAHMIVGKLSASDIERHRKRFDTNCVVTTLKDHNNSAVIASVTAAAFAGVAAYCAYSARKNS”, for which the “soluble on expression in E. coli” value is recorded as “soluble”. The value for “MKNVVIHQIVTLIFTEDQLRAYWQKQESTVPFAALTDAQYMKLAEDMLAHSSHSQLEQHLLGGRWRTKEEAEGAVLAEDESRDDIHVEIIDTNAPAEPRRRMLIDRVREILCPHCSFTFYVREAASERRDWTCPACGSGFCDLTP” was “not soluble”. With “MSLLPGPLLIPSDSSTELTQTVLEGESISCFQVGGEKRLCLPQVLNSVLREFTLQQINTVCDELYIYCSRCTSDQLHILKVLGILPFNAPSCGLITLTDAQRLCNALLRPRTFPQNGSVLPAKSSLAQLKETGSAFEVEHECLGKCQGLFAPQFYVQPDAPCIQCLECCGMFAPQTFVMHSHRSPDKRTCHWGFESAKWHCYLHVNQKYLGTPEEKKLKIILEEMKEKFSMRSGKRNQSKTDAPSGMELQSWYPVIKQEGDHVSQTHSFLHPSYYLYMCDKVVAPNVSLTSAVSQSKELTKTEASKSISRQSEKAHSSGKLQKTVSYPDVSLEEQEKMDLKTSRELCSRLDASISNNSTSKRKSESATCNLVRDINKVGIGLVAAASSPLLVKDVICEDDKGKIMEEVMRTYLKQQEKLNLILQKKQQLQMEVKMLSSSKSMKELTEEQQNLQKELESLQNEHAQRMEEFYVEQKDLEKKLEQIMKQKCTCDSNLEKDKEAEYAGQLAELRQRLDHAEADRQELQDELRQEREARQKLEMMIKELKLQILKSSKTAKEEGHHHHHH” the entry was “not soluble”; with “MFSAKKRDKCIGEMSEKQLDLLVIGGGITGAGIALDAQVRGIQTGLVEMNDFASGTSSRSTKLVHGGLRYLKQFEIKLVAEVGKERAIVYENAPHVTTPEWMLLPIFKDGTFGKFSTSLGLKVYDYLADVRKDERRYMLNEKQTLEKEPLLRKENLKGGGIYVEYRTDDARLTLEIMKEAVARGAVALNYMKVESFIYDQGKVVGVVAKDRLTDTTHTIYAKKVVNAAGPWVDTLREKDRSKHGKYLKLSKGVHLVVDQSRFPLRQAVYFDTESDGRMIFAIPREGKTYIGTTDTFYDKDIASPRMTVEDRDYILAAANYMFPSLNLTADDVESSWAGLRPLIHEEGKKASEISRKDEIFFSDSGLISIAGGKLTGYRKMAERTVDAVAQGLNVNEPCTTAAIRLSGGLAEGAQGFPRFLDEASRKGAKLGFDADEVRRLAKLYGSNVDHVLNYAYEGKEEAEHYGLPALLLGQLQYGVEQEMVATPLDFFVRRTGALFFNISLVHQWKEAVLRWMAEEFSWTEEEKTRFQNELETELKMAVDPLFQVEPTTVLEHHHHHH”, “soluble”. With “MSYGPQLPAFLMKGQIKENEVDDEAEEGAPQVYGPVIPGMEEPKNEKEKHDDQEETSVFGPSIPKEVREKLQNVENPAEDDEEDEEFPSQSYGPSIPSNFRPTVGPSIPGTFGDDSDEDIGPMPVAKGDEEKEAIDRAYRMVLQKEAEDDEKNFQPKREEWMTSVPKKLGNFGLGARTFKKGTTSERDASWEDAPGAKKRRNEETRSARSVGIAAADARQAAIVAEKTSGPSLLEIHQKKRDEKVKDAGYAQGERRPFDREKDMEVRGLKPGGSKEAVDRMKEFADRFANSKDQRFL” the entry was “not soluble”; with “MRLKKLPIRRKMPMELAYIEKLFREEVGLDIKEHKDKAEQISETVVEIYEELLRKGIENANYNGRDYVSYYDLPITEDLERYMNRFIQDRGEEVLKAFVDYLAKLEEELLKAEEALPPLDEELHQKKADILGGIMLMFASVAKQINGDRKLYAESIPVTREVLRTMI”, “not soluble”; with “SNASVRPSLWEFSSRVGMHVGASTPVPVPQAMEHVYAWYPRLNPMVQLSASRRLLAGSPWAVNVGIAVEKKGMEATTRVKDMKVAIVSDSPYAGNPDEEYPGLFTGDNNTEIRLGYLTIPVQAEYNMLKDRLKLRGGLYTSLLLESSFRVIIDGTMVYDDPKLGTAQMDLRELNFSDKIKGADFGVIIGADYYFARQ”, “not soluble”.

Turning to “MELVIISGRSGSGKSVALRALEDVGYYCVDNLPFPLIAELASFLLASDCSAVVSLDIRNFPENLTRIDELLHQLSQLTINTKMIFLDCESATLIRRYSDSRRLHPLSNQDLSLASAIELENTLLDPLRQQADYLIDTTHSSPHELAANLRHILRGSTEKELNIVFESFGFKYGLSADADYVFDVRFLPNPHWHAELRAMTGLEQPVIDFLERQTEVHNFIYQTRNYLETWLPMLEKNNRSYLTIAFGCTGGKHRSVFITEQLAKYFQSRGKNVKIRHRSLEKY”, the “soluble on expression in E. coli” value is on record as “not soluble”. As to “ITEDEIRTLMEQGADEGVFDRAEQELVENIFRLDNRKASAVMTPRKDVVILDLEDGPERNRELLLGHPFSHFPVCRGDTDQVIGMLNAKTLLDRLLRGEALDFAAELSPPLYVPSTCSLMQLLEQFKQARSHSALVVDEYGELEGLVSINNVMEAIVGDLPAIDGEEDEIV”, the “soluble on expression in E. coli” value is given as “not soluble”.
